Assay results: PMC9171410 (EMBO Reports, 2022)

T1: Gid10^57–292 (S. cerevisiae, UniProt P53242 57-292)
T1 sequence: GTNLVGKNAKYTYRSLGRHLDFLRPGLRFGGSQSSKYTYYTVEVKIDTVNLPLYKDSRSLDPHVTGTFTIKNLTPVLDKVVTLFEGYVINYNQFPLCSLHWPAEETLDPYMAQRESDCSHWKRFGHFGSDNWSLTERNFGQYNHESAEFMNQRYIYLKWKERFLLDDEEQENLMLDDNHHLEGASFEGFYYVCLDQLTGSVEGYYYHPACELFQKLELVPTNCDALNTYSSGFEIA

T2: Gid10^65–284 (S. cerevisiae, UniProt P53242 65-284)
T2 sequence: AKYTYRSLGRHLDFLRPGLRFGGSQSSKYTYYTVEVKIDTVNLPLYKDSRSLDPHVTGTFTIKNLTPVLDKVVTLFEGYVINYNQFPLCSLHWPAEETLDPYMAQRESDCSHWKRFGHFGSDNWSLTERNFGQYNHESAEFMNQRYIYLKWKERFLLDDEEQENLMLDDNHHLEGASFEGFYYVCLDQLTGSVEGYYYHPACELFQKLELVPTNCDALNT


Tests used:
Gid10^57–292 = biological target: T1, Gid10^57–292; assay: ITC
Gid10^65–284 = biological target: T2, Gid10^65–284; assay: crystal structure

| Binder | Kd (Gid10^57–292) [nM] | binding result (Gid10^65–284) |
| --- | --- | --- |
| PFITSRPVAW [Art2 degron peptide PFITSRPVAW] | 1030 |  |
| PFITSRPW [Art2 degron peptide PFITSRPW] |  | binds |
